Source: FireProtDB (doi:10.1002/pro.2449)

B1: Guanyl-specific ribonuclease T1, P00651 (parent)
chain: MMYSKLLTLTTLLLPTALALPSLVERACDYTCGSNCYSSSDVSTAQAAGYQLHEDGETVGSNSYPHKYNNYEGFDFSVSSPYYEWPILSSGDVYSGGSPGADRVVFNENNQLAGVITHTGASGNNFVECT
B2: Guanyl-specific ribonuclease Sa, P05798 (parent)
chain: DVSGTVCLSALPPEATDTLNLIASDGPFPYSQDGVVFQNRESVLPTQSYGYYHEYTVITPGARTRGTRRIITGEATQEDYYTGDHYATFSLIDQTC

Columns and labels:
[1] = variants of: B1; settings: Aspergillus oryzae (strain ATCC 42149 / RIB 40), pH 7, MOPS, transition: 2, reversible: yes, structure 1YGW, whole UniProt chain shown; for denaturant m value / denaturant midpoint (higher = more stable) / unfolding free energy: 25 °C, Urea; for Tm / change of melting temperature, mutant - wild type (higher = more stable) / ddG of mutation (higher = less stable) / unfolding enthalpy (calorimetric): Thermal, DSC
[2] = variants of: B2; settings: Kitasatospora aureofaciens; pH 7; Thermal; DSC; MOPS; transition: 2; reversible: yes; structure 1RGG; whole UniProt chain shown

Variant	denaturant m value [1] [kcal/mol/M]	denaturant midpoint (higher = more stable) [1] [M]	unfolding free energy [1] [kcal/mol]	Tm [1] [°C]	change of melting temperature, mutant - wild type (higher = more stable) [1] [°C]	ddG of mutation (higher = less stable) [1] [kcal/mol]	unfolding enthalpy (calorimetric) [1] [kcal/mol]	change of melting temperature, mutant - wild type (higher = more stable) [2] [°C]	ddG of mutation (higher = less stable) [2] [kcal/mol]	unfolding enthalpy (calorimetric) [2] [kcal/mol]
MMYSKLLTLTTLLLPTALALPSLVERACDYTCGSNCYSSSDVSTAQAAGYQLHEDGETVGSNSYPHKYNNYEGFDFSVSSPYYEWPILSSGDVYSGGSPGADRVVFNENNQLAGVITHVGASGNNFVECT [T119V]	1.2	4.16	5	49.3	-3.2	1	97			
MMYSKLLTLTTLLLPTALALPSLVERACDYTCGSNCYSSSDVSTAQAAGYQLHEDGETVGSNSYPHKYNNYEGFDFSVSSPYYEWPILSSGDVYSGGSPGADRVVFNENNQLAGVITHAGASGNNFVECT [T119A]	0.91	4.46	4.1	50.2	-2.3	0.7	104			
MMYSKLLTLTTLLLPTALALPSLVERACDYTCGSNCYSSSDVSTAQAAGYQLHEDGETVGSNSYPHKYNNYEGFDFSVSSPYYEWPILSSGDVYSGGSPGADRVVFNENNQLAGVIVHAGASGNNFVECT [T117V T119A]	1.33	1.9	2.5	38.5	-14	4.3	92			
MMYSKLLTLTTLLLPTALALPSLVERACDYTCGSNCYSSSDVSTAQAAGYQLHEDGETVGSNSYPHKYNNYEGFDFSVSSPYYEWPILSSGDVYSGGSPGADRVVFNENNQLAGVIVHVGASGNNFVECT [T117V T119V]	1.32	2.19	2.9							
MMYSKLLTLTTLLLPTALALPSLVERACDYTCGSNCYSSSDVSTAQAAGYQLHEDGETVGSNSYPHKYNNYEGFDFSVSSPYYEWPILSSGDVYSGGSPGADRVVFNENNQLAGVIAHTGASGNNFVECT [T117A]	1.25	2.32	2.9	41.9	-10.6	3.2	98			
MMYSKLLTLTTLLLPTALALPSLVERACDYTCGSNCYSSSDVSTAQAAGYQLHEDGETVGSNSYPHKYNNYEGFDFSVSSPYYEWPILSSGDVYSGGSPGADRVVFNENNQLAGVIVHTGASGNNFVECT [T117V]	1.24	2.07	2.6	40.7	-11.8	3.6	95			
MMYSKLLTLTTLLLPTALALPSLVERACDYTCGSNCYSSSDVSTAQAAGYQLHEDGETVGSNSYPHKYNNYEGFDFSVSSPYYEWPILSSGDVYSGGSPGADRVVFNENNQLAGVIAHAGASGNNFVECT [T117A T119A]	1.21	1.9	2.3	40.5	-12	3.7	96			
MMYSKLLTLTTLLLPTALALPSLVERACDYTCGSNCYSSSDVSTAQAAGYQLHEDGETVGSNSYPHKYNNYEGFDFSVSSPYYEWPILSSGDVYSGGSPGADRVVFNENNQLAGVIAHVGASGNNFVECT [T117A T119V]	1.21	2.35	2.9	41.4	-11	3.4	90			
DVAGTVCLSALPPEATDTLNLIASDGPFPYSQDGVVFQNRESVLPTQSYGYYHEYTVITPGARTRGTRRIITGEATQEDYYTGDHYATFSLIDQTC [S3A]								-1.1	0.3	86
DVSGTVCLSALPPEATDTLNLIASDGPFPYSQDGVVFQARESVLPTQSYGYYHEYTVITPGARTRGTRRIITGEATQEDYYTGDHYATFSLIDQTC [N39A]								-7.3	2	66
DVSGTVCLSALPPEATDTLNLIAADGPFPYSQDGVVFQNRESVLPTQSYGYYHEYTVITPGARTRGTRRIITGEATQEDYYTGDHYATFSLIDQTC [S24A]								-0.7	0.2	77
DVSGTVCLSALPPEATDTLNLIASDGPFPYSQDGVVFQNRESVLPTQAYGYYHEYTVITPGARTRGTRRIITGEATQEDYYTGDHYATFSLIDQTC [S48A]								1.7	-0.5	92
DVSGTVCLSALPPEATDTLNLIASDGPFPYAQDGVVFQNRESVLPTQSYGYYHEYTVITPGARTRGTRRIITGEATQEDYYTGDHYATFSLIDQTC [S31A]								1.5	-0.4	91
DVSGTVCLAALPPEATDTLNLIASDGPFPYSQDGVVFQNRESVLPTQSYGYYHEYTVITPGARTRGTRRIITGEATQEDYYTGDHYATFSLIDQTC [S9A]								-4.5	1.3	91
DVSGTVCLSALPPEATDTLNLIASDGPFPYSQDGVVFQNRESVLPTQSYGYYHEYTVITPGARTRGTRRIITGEATQEDYYTGDHYATFALIDQTC [S90A]								0.7	-0.2	86
DVSGTVCLSALPPEATDTLALIASDGPFPYSQDGVVFQNRESVLPTQSYGYYHEYTVITPGARTRGTRRIITGEATQEDYYTGDHYATFSLIDQTC [N20A]								-0.1	0	89
DVSGTVCLSALPPEATDTLNLIASDGPFPYSQDGVVFQNREAVLPTQSYGYYHEYTVITPGARTRGTRRIITGEATQEDYYTGDHYATFSLIDQTC [S42A]								0.4	-0.1	92
DVSGTVCLSALPPEATDTLNLIASDGPFPYSQDGVVFQNRESVLPTQSYGYYHEYTVITPGARTRGTRRIITGEATQEDYYTGDHYATFSLIDQAC [T95A]								-2.1	0.6	97
